Data from patent US20210179715A1 (Genentech, published 2021).
Several values for one entry are separate records, joined by “and”; a condition that tells them apart may be missing. Equal values may be shown once. Read-outs that look alike come from different tables or passages of the source.

Tests used:
LY6G6D on HT55 cells = biological target: T1, LY6G6D on HT55 cells (human, UniProt O95868 20-104); test: cell-based or functional assay
T1 sequence: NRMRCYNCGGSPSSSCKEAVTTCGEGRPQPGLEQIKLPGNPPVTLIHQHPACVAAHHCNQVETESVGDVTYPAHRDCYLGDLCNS

human LY6G6D-Fc [1] = biological target: T2, human LY6G6D-Fc (human, UniProt O95868 20-104); test: BIAcore SPR; two-cell TDB
T2 construct: also called hu Ly6G6D; huLY6G6D; not shown: linker and Fc part
T2 sequence: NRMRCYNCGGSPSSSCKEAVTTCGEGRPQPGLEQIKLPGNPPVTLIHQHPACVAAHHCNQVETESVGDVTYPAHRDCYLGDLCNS

[2] = biological target: T3, human extracellular domain (ECD) of CD3 (human, UniProt P07766 23-126); test: BIAcore SPR; two-cell TDB
T3 construct: extracellular domain; also called huCD3

[3] = biological target: T4, cyno extracellular domain (ECD) of CD3 (cynomolgus monkey, UniProt Q95LI5 22-117); test: BIAcore SPR; two-cell TDB
T4 construct: extracellular domain; also called CyCD3
T4 sequence (looked up): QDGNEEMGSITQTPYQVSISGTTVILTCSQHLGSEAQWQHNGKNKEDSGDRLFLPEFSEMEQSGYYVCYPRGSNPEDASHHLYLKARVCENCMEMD

human LY6G6D-Fc [4] = biological target: T2, human LY6G6D-Fc; test: BIAcore SPR; LY6G6D-Fc on chip; TDB flowed; 37 C
Experimental: The humanized rb.20A12 variant 20A12.QNTv12, the humanized rb.6E10 variant 6E10.v114, and the anti-LY6G6D 1G4 arm were paired with the anti-CD3 38E4v1 or 40G5c arm as TDBs and tested for affinity to human and cynomolgus LY6G6D in a BIAcore® assay. Rabbit 20Al2, rabbit 6E10, and humanized 20A12.QNTv12 and 20A12.SNVv12 were additionally assayed for binding as antigen-binding fragments (Fabs). LY6G6D-Fc was directly immobilized on a chip, and TDBs were flowed through at 37° C., except for the rb6E10 Fab, which was assayed at 25° C.

human LY6G6D-Fc [5] = biological target: T2, human LY6G6D-Fc; test: BIAcore SPR; LY6G6D-Fc on chip; TDB flowed; 37 C; remark: listed apart in the source
Experimental: TDBs comprising the anti-LY6G6D arm 20Al2.QNTv12 and the anti-CD3 38E4.v1 (left panel; produced using a two-cell-manufacturing system), 38E4.v1 MD1 (center panel; produced using a one-cell-manufacturing system), or 38E4.v1 MD4 arm (right panel; produced using a one-cell-manufacturing system) were assayed for affinity for a human Ly6G6D polypeptide (FIG. 25) using a BIAcore assay.

[6] = biological target: T5, 27mer human CD3 polypeptide conjugated to biotin (human, conjugated to biotin (site not stated)); test: BIAcore T200 SPR; biotin 27mer CD3 peptide on SA chip; TDB flowed; 37 C
T5 construct: The assay text says only '27mer human CD3 polypeptide'; also called HuCD3e pept biotin
T5 peptide: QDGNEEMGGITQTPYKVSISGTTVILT
Experimental: The MD1 and MD4 variants thus retained the high affinity of 38E4v1. Assays were performed using a BIAcore T200: 27mer human and cyno CD3 polypeptides were conjugated to biotin and were immobilized on a SA CM5 chip, and TDBs were flowed through at 100 μl/min at 37° C.

[7] = biological target: T5, 27mer human CD3 polypeptide conjugated …; test: as above
Experimental: Assays were performed using a BIAcore T200. 27mer human and cyno CD3 polypeptides were conjugated to biotin and were immobilized on a SA CM5 chip. LY6G6D TDBs were flowed through at 37° C.

T3 sequence (P07766 23-126): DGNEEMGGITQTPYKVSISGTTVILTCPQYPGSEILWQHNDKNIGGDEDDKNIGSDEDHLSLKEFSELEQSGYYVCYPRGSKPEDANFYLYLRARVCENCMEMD

B1: LY6G6D TDB comprising the anti-LY6G6D 20A12.QNTv12 arm (two-cell) and the anti-CD3 38E4v1 arm (bispecific antibody, V domains shown)
VH 1: EVQLLESGGGLVQPGGSLRLSCAASGFDFVNNAMIWVRQAPGKGLEWVSALSFADNTAYYATWASGRFTISRDSSKTTVYLQMNSLRAEDTAVYYCMRGDLWGPGTLVTVSS
VL 1: DIQMTQSPSTLSASVGDRVTITCQASESITRYLNWYQQKPGKAPKLLIYDASKLPSGVPSRFSGSGSGTEFTLTISSLQPDDFATYYCQSTSFRGRSYQNTFGGGTKVEIK
VH 2: EVQLVQSGAEVKKPGASVKVSCKASGFTFTSYYIHWVRQAPGQGLEWIGWIYPENDNTKYNEKFKDRVTITADTSTSTAYLELSSLRSEDTAVYYCARDGYSRYYFDYWGQGTLVTVSS
VL 2: DIVMTQSPDSLAVSLGERATINCKSSQSLLNSRTRKNYLAWYQQKPGQSPKLLIYWTSTRKSGVPDRFSGSGSGTDFTLTISSLQAEDVAVYYCKQSFILRTFGQGTKVEIK
notes: Full-length IgG1 kappa; also called hu20A12.QNTv12/38E4v1 TDB; 20A12.QNTv12/38E4v1
LY6G6D on HT55 cells
  average CD8+T cell activation EC50: ~87 ng/ml and ~583 pM
  average cell killing EC50: ~1.04 ng/ml and ~7 pM
Human LY6G6D-Fc [1]
  Kd: 2.02 nM
[2]
  Kd: 20 nM
[3]
  Kd: 15 nM
Human LY6G6D-Fc [4]
  Kd: 2.02 nM
  koff: 0.000444 s⁻¹
  kon: 220000 M⁻¹ s⁻¹
Human LY6G6D-Fc [5]
  Kd: 1.39 nM
  koff: 0.000416 s⁻¹
  kon: 299000 M⁻¹ s⁻¹
[6]
  Kd: 17.6 nM and 21.9 nM
  koff: 0.0429 s⁻¹ and 0.0486 s⁻¹
  kon: 2.44e+06 M⁻¹ s⁻¹ and 2.22e+06 M⁻¹ s⁻¹
[7]
  Kd: 19.8 nM
